Consider two molecules from patent CN113484526A (SHANGHAI MABGEN MEDICINE TECH CO LTD, dated 2021).

The target of assay [1] is Human FcRn Protein, His Tag (ACRO Biosystems, Cat.No.FCN-H52W7) (human) (UniProt P55899). Nature of the assay: competition ELISA against Biotin-IgG on FcRn-His, relative to the reference antibody (SEQ ID NO: 180/181). A general note: ELISA stands for enzyme-linked immunosorbent assay.
Assay [2] concerns the target T1, 人FcRn胞外区-β2M复合物(带His标签的重组蛋白) (human, UniProt P61769 21-119).
T1 construct: also called FcRn抗原; 人FcRn-β2M复合物; not shown: His tag
Description: hybridoma screening: binding ELISA, cell binding and cell blocking.

Chain of UniProt P55899 (P55899 24-297 limits assumed, chain 1 of 2): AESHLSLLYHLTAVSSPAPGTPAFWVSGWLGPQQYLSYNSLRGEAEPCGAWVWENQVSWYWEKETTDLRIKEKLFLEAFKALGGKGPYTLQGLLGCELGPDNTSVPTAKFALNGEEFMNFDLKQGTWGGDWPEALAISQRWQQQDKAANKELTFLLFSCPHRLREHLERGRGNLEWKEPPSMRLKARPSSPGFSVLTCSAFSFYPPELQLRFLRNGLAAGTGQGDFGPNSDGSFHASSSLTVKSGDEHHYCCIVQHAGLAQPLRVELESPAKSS
Chain of UniProt P55899 (P61769 21-119 limits assumed, chain 2 of 2, further chain): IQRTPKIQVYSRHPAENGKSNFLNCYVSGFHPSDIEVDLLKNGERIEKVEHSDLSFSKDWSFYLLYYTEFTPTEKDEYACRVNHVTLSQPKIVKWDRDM
T1 sequence (chain, as listed by the source limits assumed, chain 1 of 2): as the sequence (P55899 24-297 limits assumed, chain 1 of 2) above
T1 sequence (P61769 21-119 limits assumed, chain 2 of 2): as the sequence (P61769 21-119 limits assumed, chain 2 of 2, further chain) above

On to “不针对FcRn靶点的无关抗体(IgG4亚型，迈晋生物自制) (antibody)”, for which the 生物学活性(相对参考品) in assay [1] is 0%.

B1: hybri11 (antibody, V domains shown)
VH: QVQLQQPGAELVKPGASVKVSCKASGSTFTSYYMHWVKQRPGQGLEWIGRIHPSNSDSNYNQKFKGKATLTVDKSSSTAYMQLSSLTSEDSAVYYCAMKRDGYYEGFPHWGQGTLVTVSA
VL: DIQMTQSPASQSASLGESVTITCLASQTIGTWLAWYQQKPGKSPQLLIYAATSLADGVPSRFSGSRSGTKFSFKISSLQAEDFVSYYCQQLYSTPYTFGGGTKLEIK
notes: Mouse hybridoma antibody; tested as hybridoma supernatant/purified antibody; also called 阳性克隆hybri11
Take B1: the binding result in assay [2] is reported as “binds”.
